Data taken from paper PMC6686729, “RGD conjugated cell uptake off to on responsive NIR-AZA fluorophores: applications toward intraoperative fluorescence guided surgery” (Chemical Science, 2019).

Assays:
[1] = pH titration of fluorescence intensity, sigmoidal plot fit (pKa); format: physicochemical
Excerpt: In order to display the responsive nature and full emissive potential of 2 and 3, their DMEM solutions were sequentially acidified (Fig. 4a and b). This caused a successive increase in emission intensity as acidity increased, with a maximum intensity reached at approximately pH 4. […] While it is recognized that the extracellular matrix of a solid tumour can be more acidic than normal tissue, intracellular organelles such as late endosomes and lysosomes are also acidic ranging between pH 4.5 and 5.5.[27] Encouragingly, the measured fluorescence enhancement factor (FEF) for 2 and 3 between pH 7.2 and that of 4.5 (as found in lysosomes) was 23 and 18 respectively (Fig. 4c). […]
Fig. 4 Responsive emission characteristics of 2 and 3 (5 μM) in DMEM/10% FBS solutions containing TX100. (a) Fluorescence spectra of 2 at pH ranging from 8.0 (black) to 2.0 (red); inset sigmoidal plot fit of integrated fluorescence intensity versus pH. (b) Fluorescence spectra of 3 at pH ranging from 8.0 (black) to 2.0 (red); inset sigmoidal plot fit of integrated fluorescence intensity versus pH. […]
Fig. S1. Absorption and fluorescence pH titration of 1
Fig. S1 Absorbance (left) and fluorescence (right) spectra of 1 (5 μM) in PBS buffer/TX-100 (4 mM) starting at pH 8 (grey line) to pH 2 (red line). Fluorescence excitation: 630 nm; range: 650- 900 nm; […]
(§1) Fig. S2. Absorption pH titration and fluorescence spectra of 2 […]

[2] = tested on: MDA-MB 231 subcutaneous tumour; assay: In vivo tumour fluorescence imaging, tumour-to-background ratio (TBR) over 96 h; parameters: species or system Balb/C nu/nu mice; settings: 2 mg kg–1, n = 4 (n = 2 for 10)
Description: Each fluorophore was subjected to in vivo analysis using a standard dosing set at 2 mg kg^–1 delivered by i.v. tail vein injection. Post injection, images were acquired initially at regular intervals between 10 min and 9 h and thereafter less frequently at 24, 48 and 96 h. The method used for image analysis was consistent across all experiments with TBR values calculated by measuring tumour ROI fluorescence against an average of three equally sized background ROI regions, two of which were close to and one distant from the tumour (Fig. S11 ^†). […] As such, we adopted this value as a point of reference to compare result from different fluorophores and different time points for individual fluorophores. […]
All in vivo experiments were conducted in University College Dublin, Ireland in compliance with relevant laws, and their institutional guidelines for animal protocols and the guidelines issued b y the Ethical Committee of University College Dublin and under license from the Health Products Regulatory Authority (HPRA), Dublin, Ireland which approved the experiments.
All in vivo work was carried out in the biomedical facility, University College Dublin (UCD) . MDA-MB-231, a human breast adenocarcinoma cell line, was obtained from Caliper Life Sciences. Cells were maintained as a mono-layer culture in Minimum Essential Medium containing 10% (v/v) fetal bovine serum and supplemented with 1% (v/v) L–glutamine, 50 U/mL penicillin, […] streptomycin, 1% (v/v) sodium pyruvate and 1% (v/v) non-essential amino acids. All cells were maintained in 5% CO2 (v/v) and 21% O2 (v/v) at 37°C.
Balb/C nu/nu mice (Harlan) were housed in individually ventilated cages in temperature and humidity-controlled rooms with a 12 hours light dark cycle. 2-5 Million MDA-MB 231 cells in 100 μL of a DPBS:Matrigel (50:50) solution were injected subcutaneously behind the fore limb of the 5-week-old mice using a 25-g needle. Tumors reached an average diameter of 6 mm prior to imaging […]
images taken at early time points with less frequent imaging thereafter. Images were taken using the settings of excitation 675 nm (30 nm band pass filter) and emission 720 nm (20 nm band pass filter) narrow band pass filters and were analyzed using Living Image Software v4.7.2 (Caliper LS). The tumor-to-background ratio (TBR) was calculated by using the measured fluorescence signal in the ROIs of tumor target and average background. […]
The fluorescence intensity of the animal was measured and normalized to photons per second per centimeter squared per steradian per micro-Watt per centimeter squared [(p/sec/cm2/sr) /(μW/cm2)].
Mice were injected via tail vein (2 mg/kg) as follows; [n = 4 for 1 (3.7 nmol)], [n = 4 for 2 (13.2 nmol)], [n = 4 for 3 (10.5 nmol)], [n = 2 for 10 (10.1 nmol)], anesthetized, and imaged at various time points post injection. All fluorescence images were acquired with two second exposure (f/stop = 2).
Color scale was adjusted and kept same for each experiment to show good contrast of target tumor region to background over time. The fluorescence intensity was not affected by color scale adjusting. […]
For RGD competitive binding study, mice injected with 2 (13.2 nmol) with or without pre-injection with RDG 5 (89.5 nmol) and were imaged at 10 min interval for 3 hours, and then immediately euthanized by inhalation of carbon dioxide. For quantitative comparison, regions of interests (ROIs) […]

[3] = Photophysical properties (absorption, emission, FEF, quantum yield) in DMEM/10% FBS; format: physicochemical
Excerpt: The photophysical properties of the bio-responsive fluorophores 2 and 3 and the always-on control 10 were studied in solutions of Dulbecco's modified eagle's cell medium (DMEM) containing 10% fetal bovine serum (FBS). Absorption and emission wavelengths are listed in Table 1 and are, as would be expected for the NIR-AZA class, in the 690–730 nm range. At pH 7.4 fluorescence intensity of always-on10 was 17- and 15-fold greater than 2 and 3 respectively (Table 1). This illustrates both the emissive potential of the peptide conjugates and the ability to quench the bio-responsive derivatives in relevant biological media (Table 1, spectra and inset). […]
as §1
Fig. S2 Absorbance (left) spectra of 2 (5 μM) in DMEM (10% FBS) /TX100 (4 mM) starting at pH 8 (grey line) to pH 3 (red line). Fluorescence (right) spectra of series dilution (3 µM, 1.8 µM, 1.3 µM, 0.5 µM) in DMEM (10% FBS) /TX100 (4 mM) at pH=3. Fluorescence excitation: 630 nm; range: 650- 900 nm; slit widths: 5/5. Inset: Integrated fluorescence intensity vs. Absorbance; calculated fluorescence quantum yield Φ = 0.16. […]
Fig. S3. Absorption pH titration and fluorescence spectra of 3 […]
Fig. S3 Absorbance (left) spectra of 3 (5 μM) in DMEM (10% FBS) /TX100 (4 mM) starting at pH 8 (grey line) to pH 3 (red line). Fluorescence (right) spectra of series dilution (3.5 µM, 2.6 µM, 1.3 µM, 0.8 µM) in DMEM (10% FBS) /TX100 (4 mM) at pH=3. Fluorescence excitation: 630 nm; range: 650- 900 nm; slit widths: 5/5. Inset: Integrated fluorescence intensity vs. Absorbance; calculated fluorescence quantum yield Φ = 0.18.
Fig. S4. Absorption and fluorescence spectra of 10 at pH 7.4, 6.6, 5.6 and 3.
Fig. S4 Absorbance (left) and fluorescence (right) spectra of 10 (5 μM) in DMEM (10% FBS) /TX100 (4 mM). Fluorescence excitation: 630 nm; range: 650- 900 nm; slit widths: 5/5.

[4] = tested on: MDA-MB 231 cells; assay: Live MDA-MB 231 cell NIR-fluorescence/DIC time-lapse imaging; format: cell-based, human; settings: live MDA-MB 231 cells, 1–5 μM, 37 °C
Description: With the responsive nature of 2 and 3 established, the potential for translation of these constructs to real-time live cell imaging was investigated. In order to illustrate the imaging effect of the bio-responsive characteristics of 2 and 3 the always-on10 was also imaged as a positive control. For live MDA-MB 231 cell experiments, chamber slide seeded cells were placed in a widefield microscope surrounded by an incubator to maintain the temperature at 37 °C and CO2 at 5%, following which an imaging field of view containing viable cells was chosen. The cells were treated with either 2, 3 or 10 (1–5 μM) and time-lapse NIR-fluorescence and differential interference contrast (DIC) images were acquired over 120 min. […] As expected, the […] morphology of the cell line is distinguishable by its membrane filopodia projections which is characteristic of its metastatic invasive phenotype (Movie S1 ^†). After 60 min incubation, both cell membrane and intracellular vesicle staining of the cytoplasm could be observed, both of which persisted at 120 min (Fig. 5b and c). […]
Fluorescence and DIC images were acquired on an Olympus IX73 epi-fluorescent microscope fitted with an Andor iXon Ultra 888 EMCCD and controlled by MetaMorph (v7.8). Fluorescence illumination was provided by a Lumencor Spectra X light engine containing a solid-state light source. […]

Molecule | pKa [1] | TBR ([2]; 10 to 60 min (first 60 min) post i.v. tail vein injection) | TBR ([2]; 3 h post i.v. injection) | TBR ([2]; 6 h post i.v. injection) | TBR ([2]; 24 h post i.v. injection) | TBR ([2]; 48 h post i.v. injection) | absorption or emission spectral changes between pH 7.2 and 4.5 ([3]; 5 μM in DMEM (10% FBS)/TX100 (4 mM)) | λ max flu (nm) ([3]; DMEM/10% FBS with 4 mM TX-100, 5 μM) | FEF pH 7.4/4.5 (fluorescence enhancement factor) ([3]; DMEM/10% FBS with 4 mM TX-100, 5 μM, pH 7.4 vs 4.5) | λ max abs (nm) pH 4.5 ([3]; DMEM/10% FBS with 4 mM TX-100, pH 4.5) | λ max abs (nm) pH 7.2 ([3]; DMEM/10% FBS with 4 mM TX-100, pH 7.2) | fluorescence intensity of always-on 10 relative to 2 ([3]; pH 7.4, DMEM/10% FBS, 5 μM) | fluorescence intensity of always-on 10 relative to 3 ([3]; pH 7.4, DMEM/10% FBS, 5 μM) | cell staining pattern over 120 min ([4]; 5% CO2, time-lapse over 120 min) | cell staining in the first 15 min of incubation ([4]; 5% CO2, widefield NIR-fluorescence and DIC)
N=C(N)NCCC[C@@H]1NC(=O)[C@H](CCCCNC(=O)COCCOCCNC(=O)COCCOCCNC(=O)COc2ccc(-c3cc(-c4ccccc4)c4n3[B-](F)(F)[N+]3=C(c5ccc(O)c([N+](=O)[O-])c5)C=C(c5ccccc5)C3=N4)cc2)NC(=O)[C@@H](Cc2ccccc2)NC(=O)[C@H](CC(=O)O)NC(=O)CNC1=O [compound 2] | 4.9 | – | – | – | – | – | – | – | – | – | – | – | – | – | –
CC(=O)N[C@@H](CSC1CC(=O)N(CCC(=O)NCCOc2ccc(-c3cc(-c4ccccc4)c4n3[B-](F)(F)[N+]3=C(c5ccc(O)c([N+](=O)[O-])c5)C=C(c5ccccc5)C3=N4)cc2)C1=O)C(=O)NCCCC[C@@H]1NC(=O)[C@H](CC(=O)O)NC(=O)CNC(=O)[C@H](CCCNC(=N)N)NC(=O)[C@@H](NC(C)=O)CSSC[C@@H](C(N)=O)NC(=O)[C@H](CC(=O)O)NC(=O)[C@@H]2CCCN2C(=O)CNC1=O (stereo partly shown) [compound 3] | 4.9 | – | – | – | – | – | – | – | – | – | – | – | – | – | –
cCRGDKGPDC (disulfide) [compound 10, iRGD conjugated always-on NIR-AZA control with alkylsulfonic acid group, from fluorochrome 9 and peptide 8] | – | below 1.3 | 1.5 | 1.9 | above 2 | 2 | no absorption or emission spectral changes | 733 nm | 1.0 | 703 nm | 705 nm | 17 fold | 15 fold | first showed plasma membrane before internal organelle staining | fluorescence specific to the plasma membrane
